Data from patent US20020102706A1 (published 2002).

Biological target: T1, Apo-2 ligand (soluble Apo-2L, Pitti et al.) (UniProt P50591 114-281)
T1 construct: also called TRAIL; 125I-Apo-2L
Assay: 125I-Apo-2L binding to Apo-2DcR-transfected 293 cells; nonspecific binding with 0.5 ug/ml unlabeled Apo-2L
Description: The effect of pre-treatment of the cells with phosphatidylinositol-specific phospholipase C (PI-PLC) on the binding was also analyzed.
(1 μg/ml) was added to one of the two aliquots derived from each transfection, 5 and the cells were incubated 1 hour at 37° C. The cells were washed and respuspended in 1 ml PBS containing 1% BSA (Sigma), and 0.04 ml aliquots were placed into tubes in triplicate. […] After a 1 hour incubation at room temperature, the cells were washed in ice cold PBS, pelleted, and counted for radioactivity.

T1 sequence (P50591 114-281 limits assumed): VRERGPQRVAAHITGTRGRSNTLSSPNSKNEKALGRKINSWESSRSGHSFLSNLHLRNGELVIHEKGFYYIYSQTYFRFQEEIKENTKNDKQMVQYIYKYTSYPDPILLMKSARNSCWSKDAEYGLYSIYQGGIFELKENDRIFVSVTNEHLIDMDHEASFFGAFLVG

B1: full-length native sequence human Apo-2DcR (receptor)
chain: ATTARQEEVPQQTVAPQQQRHSFKGEECPAGSHRSEHTGACNPCTEGVDYTNASNNEPSCFPCTVCKSDQKHKSSCTMTRDTVCQCKEGTFRNENSPEMCRKCSRCPSGEVQVSNCTSWDDIQCVEEFGANATVETPAAEETMNTSPGTPAPAAEETMNTSPGTPAPAAEETMTTSPGTPAPAAEETMTTSPGTPAPAAEETMTTSPGTPA
notes: also called Apo-2DcR receptor; pRK5-hApo-2DcR product
B1: binds.
